# B1: Wnt5a (ligand, UniProt P41221 62-380, looked up)
# chain: IIGAQPLCSQLAGLSQGQKKLCHLYQDHMQYIGEGAKTGIKECQYQFRHRRWNCSTVDNTSVFGRVMQIGSRETAFTYAVSAAGVVNAMSRACREGELSTCGCSRAARPKDLPRDWLWGGCGDNIDYGYRFAKEFVDARERERIHAKGSYESARILMNLHNNEAGRRTVYNLADVACKCHGVSGSCSLKTCWLQLADFRKVGDALKEKYDSAAAMRLNSRGKLVQVNSRFNSPTTQDLVYIDPSPDYCVRNESTGSLGTQGRLCNKTSEGMDGCELMCCGRGYDQFKTVQTERCHCKFHWCCYVKCKKCTEIVDQFVCK
# notes: Wnt5a, purified protein; source: purified
# B2: Wnt11 (ligand, UniProt O96014 25-354, looked up)
# chain: IKWLALSKTPSALALNQTQHCKQLEGLVSAQVQLCRSNLELMHTVVHAAREVMKACRRAFADMRWNCSSIELAPNYLLDLERGTRESAFVYALSAAAISHAIARACTSGDLPGCSCGPVPGEPPGPGNRWGGCADNLSYGLLMGAKFSDAPMKVKKTGSQANKLMRLHNSEVGRQALRASLEMKCKCHGVSGSCSIRTCWKGLQELQDVAADLKTRYLSATKVVHRPMGTRKHLVPKDLDIRPVKDSELVYLQSSPDFCMKNEKVGSHGTQDRQCNKTSNGSDSCDLMCCGRGYNPYTDRVVERCHCKYHWCCYVTCRRCERTVERYVCK
# notes: Wnt11, purified protein; source: purified
# B3: Wnt3a (ligand, UniProt P56704 19-352, looked up)
# chain: SYPIWWSLAVGPQYSSLGSQPILCASIPGLVPKQLRFCRNYVEIMPSVAEGIKIGIQECQHQFRGRRWNCTTVHDSLAIFGPVLDKATRESAFVHAIASAGVAFAVTRSCAEGTAAICGCSSRHQGSPGKGWKWGGCSEDIEFGGMVSREFADARENRPDARSAMNRHNNEAGRQAIASHMHLKCKCHGLSGSCEVKTCWWSQPDFRAIGDFLKDKYDSASEMVVEKHRESRGWVETLRPRYTYFKVPTERDLVYYEASPNFCEPNPETGSFGTRDRTCNVSSHGIDGCDLLCCGRGHNARAERRREKCRCVFHWCCYVSCQECTRVYDVHTCK
# notes: Wnt3a, purified protein; source: purified
# Molecular target: T1, Low-density lipoprotein receptor-related protein 1 (LRP1), purified human full-length (human, UniProt Q07954 20-4544)
# T1 construct: Low-density lipoprotein receptor-related protein 1 (LRP1), human, purified full-length protein coated on the plate; also called full-length LRP1; Full-length sLRP1; source: purified
# Experiment: ELISA; solid-phase binding assay; human full-length LRP1 (10 nM in 50 mM Tris-HCl pH 7.5, 150 mM NaCl, 10 mM CaCl2) coated on microtiter plates; 0-200 nM Wnt in 5% BSA blocking solution, 30 min at RT; bound Wnt detected with a specific anti-Wnt antibody; signal of uncoated wells subtracted; apparent constants (KD,app) extrapolated from a one-phase decay nonlinear fit
# Conditions: both partners purified
# T1 sequence (Q07954 20-4544): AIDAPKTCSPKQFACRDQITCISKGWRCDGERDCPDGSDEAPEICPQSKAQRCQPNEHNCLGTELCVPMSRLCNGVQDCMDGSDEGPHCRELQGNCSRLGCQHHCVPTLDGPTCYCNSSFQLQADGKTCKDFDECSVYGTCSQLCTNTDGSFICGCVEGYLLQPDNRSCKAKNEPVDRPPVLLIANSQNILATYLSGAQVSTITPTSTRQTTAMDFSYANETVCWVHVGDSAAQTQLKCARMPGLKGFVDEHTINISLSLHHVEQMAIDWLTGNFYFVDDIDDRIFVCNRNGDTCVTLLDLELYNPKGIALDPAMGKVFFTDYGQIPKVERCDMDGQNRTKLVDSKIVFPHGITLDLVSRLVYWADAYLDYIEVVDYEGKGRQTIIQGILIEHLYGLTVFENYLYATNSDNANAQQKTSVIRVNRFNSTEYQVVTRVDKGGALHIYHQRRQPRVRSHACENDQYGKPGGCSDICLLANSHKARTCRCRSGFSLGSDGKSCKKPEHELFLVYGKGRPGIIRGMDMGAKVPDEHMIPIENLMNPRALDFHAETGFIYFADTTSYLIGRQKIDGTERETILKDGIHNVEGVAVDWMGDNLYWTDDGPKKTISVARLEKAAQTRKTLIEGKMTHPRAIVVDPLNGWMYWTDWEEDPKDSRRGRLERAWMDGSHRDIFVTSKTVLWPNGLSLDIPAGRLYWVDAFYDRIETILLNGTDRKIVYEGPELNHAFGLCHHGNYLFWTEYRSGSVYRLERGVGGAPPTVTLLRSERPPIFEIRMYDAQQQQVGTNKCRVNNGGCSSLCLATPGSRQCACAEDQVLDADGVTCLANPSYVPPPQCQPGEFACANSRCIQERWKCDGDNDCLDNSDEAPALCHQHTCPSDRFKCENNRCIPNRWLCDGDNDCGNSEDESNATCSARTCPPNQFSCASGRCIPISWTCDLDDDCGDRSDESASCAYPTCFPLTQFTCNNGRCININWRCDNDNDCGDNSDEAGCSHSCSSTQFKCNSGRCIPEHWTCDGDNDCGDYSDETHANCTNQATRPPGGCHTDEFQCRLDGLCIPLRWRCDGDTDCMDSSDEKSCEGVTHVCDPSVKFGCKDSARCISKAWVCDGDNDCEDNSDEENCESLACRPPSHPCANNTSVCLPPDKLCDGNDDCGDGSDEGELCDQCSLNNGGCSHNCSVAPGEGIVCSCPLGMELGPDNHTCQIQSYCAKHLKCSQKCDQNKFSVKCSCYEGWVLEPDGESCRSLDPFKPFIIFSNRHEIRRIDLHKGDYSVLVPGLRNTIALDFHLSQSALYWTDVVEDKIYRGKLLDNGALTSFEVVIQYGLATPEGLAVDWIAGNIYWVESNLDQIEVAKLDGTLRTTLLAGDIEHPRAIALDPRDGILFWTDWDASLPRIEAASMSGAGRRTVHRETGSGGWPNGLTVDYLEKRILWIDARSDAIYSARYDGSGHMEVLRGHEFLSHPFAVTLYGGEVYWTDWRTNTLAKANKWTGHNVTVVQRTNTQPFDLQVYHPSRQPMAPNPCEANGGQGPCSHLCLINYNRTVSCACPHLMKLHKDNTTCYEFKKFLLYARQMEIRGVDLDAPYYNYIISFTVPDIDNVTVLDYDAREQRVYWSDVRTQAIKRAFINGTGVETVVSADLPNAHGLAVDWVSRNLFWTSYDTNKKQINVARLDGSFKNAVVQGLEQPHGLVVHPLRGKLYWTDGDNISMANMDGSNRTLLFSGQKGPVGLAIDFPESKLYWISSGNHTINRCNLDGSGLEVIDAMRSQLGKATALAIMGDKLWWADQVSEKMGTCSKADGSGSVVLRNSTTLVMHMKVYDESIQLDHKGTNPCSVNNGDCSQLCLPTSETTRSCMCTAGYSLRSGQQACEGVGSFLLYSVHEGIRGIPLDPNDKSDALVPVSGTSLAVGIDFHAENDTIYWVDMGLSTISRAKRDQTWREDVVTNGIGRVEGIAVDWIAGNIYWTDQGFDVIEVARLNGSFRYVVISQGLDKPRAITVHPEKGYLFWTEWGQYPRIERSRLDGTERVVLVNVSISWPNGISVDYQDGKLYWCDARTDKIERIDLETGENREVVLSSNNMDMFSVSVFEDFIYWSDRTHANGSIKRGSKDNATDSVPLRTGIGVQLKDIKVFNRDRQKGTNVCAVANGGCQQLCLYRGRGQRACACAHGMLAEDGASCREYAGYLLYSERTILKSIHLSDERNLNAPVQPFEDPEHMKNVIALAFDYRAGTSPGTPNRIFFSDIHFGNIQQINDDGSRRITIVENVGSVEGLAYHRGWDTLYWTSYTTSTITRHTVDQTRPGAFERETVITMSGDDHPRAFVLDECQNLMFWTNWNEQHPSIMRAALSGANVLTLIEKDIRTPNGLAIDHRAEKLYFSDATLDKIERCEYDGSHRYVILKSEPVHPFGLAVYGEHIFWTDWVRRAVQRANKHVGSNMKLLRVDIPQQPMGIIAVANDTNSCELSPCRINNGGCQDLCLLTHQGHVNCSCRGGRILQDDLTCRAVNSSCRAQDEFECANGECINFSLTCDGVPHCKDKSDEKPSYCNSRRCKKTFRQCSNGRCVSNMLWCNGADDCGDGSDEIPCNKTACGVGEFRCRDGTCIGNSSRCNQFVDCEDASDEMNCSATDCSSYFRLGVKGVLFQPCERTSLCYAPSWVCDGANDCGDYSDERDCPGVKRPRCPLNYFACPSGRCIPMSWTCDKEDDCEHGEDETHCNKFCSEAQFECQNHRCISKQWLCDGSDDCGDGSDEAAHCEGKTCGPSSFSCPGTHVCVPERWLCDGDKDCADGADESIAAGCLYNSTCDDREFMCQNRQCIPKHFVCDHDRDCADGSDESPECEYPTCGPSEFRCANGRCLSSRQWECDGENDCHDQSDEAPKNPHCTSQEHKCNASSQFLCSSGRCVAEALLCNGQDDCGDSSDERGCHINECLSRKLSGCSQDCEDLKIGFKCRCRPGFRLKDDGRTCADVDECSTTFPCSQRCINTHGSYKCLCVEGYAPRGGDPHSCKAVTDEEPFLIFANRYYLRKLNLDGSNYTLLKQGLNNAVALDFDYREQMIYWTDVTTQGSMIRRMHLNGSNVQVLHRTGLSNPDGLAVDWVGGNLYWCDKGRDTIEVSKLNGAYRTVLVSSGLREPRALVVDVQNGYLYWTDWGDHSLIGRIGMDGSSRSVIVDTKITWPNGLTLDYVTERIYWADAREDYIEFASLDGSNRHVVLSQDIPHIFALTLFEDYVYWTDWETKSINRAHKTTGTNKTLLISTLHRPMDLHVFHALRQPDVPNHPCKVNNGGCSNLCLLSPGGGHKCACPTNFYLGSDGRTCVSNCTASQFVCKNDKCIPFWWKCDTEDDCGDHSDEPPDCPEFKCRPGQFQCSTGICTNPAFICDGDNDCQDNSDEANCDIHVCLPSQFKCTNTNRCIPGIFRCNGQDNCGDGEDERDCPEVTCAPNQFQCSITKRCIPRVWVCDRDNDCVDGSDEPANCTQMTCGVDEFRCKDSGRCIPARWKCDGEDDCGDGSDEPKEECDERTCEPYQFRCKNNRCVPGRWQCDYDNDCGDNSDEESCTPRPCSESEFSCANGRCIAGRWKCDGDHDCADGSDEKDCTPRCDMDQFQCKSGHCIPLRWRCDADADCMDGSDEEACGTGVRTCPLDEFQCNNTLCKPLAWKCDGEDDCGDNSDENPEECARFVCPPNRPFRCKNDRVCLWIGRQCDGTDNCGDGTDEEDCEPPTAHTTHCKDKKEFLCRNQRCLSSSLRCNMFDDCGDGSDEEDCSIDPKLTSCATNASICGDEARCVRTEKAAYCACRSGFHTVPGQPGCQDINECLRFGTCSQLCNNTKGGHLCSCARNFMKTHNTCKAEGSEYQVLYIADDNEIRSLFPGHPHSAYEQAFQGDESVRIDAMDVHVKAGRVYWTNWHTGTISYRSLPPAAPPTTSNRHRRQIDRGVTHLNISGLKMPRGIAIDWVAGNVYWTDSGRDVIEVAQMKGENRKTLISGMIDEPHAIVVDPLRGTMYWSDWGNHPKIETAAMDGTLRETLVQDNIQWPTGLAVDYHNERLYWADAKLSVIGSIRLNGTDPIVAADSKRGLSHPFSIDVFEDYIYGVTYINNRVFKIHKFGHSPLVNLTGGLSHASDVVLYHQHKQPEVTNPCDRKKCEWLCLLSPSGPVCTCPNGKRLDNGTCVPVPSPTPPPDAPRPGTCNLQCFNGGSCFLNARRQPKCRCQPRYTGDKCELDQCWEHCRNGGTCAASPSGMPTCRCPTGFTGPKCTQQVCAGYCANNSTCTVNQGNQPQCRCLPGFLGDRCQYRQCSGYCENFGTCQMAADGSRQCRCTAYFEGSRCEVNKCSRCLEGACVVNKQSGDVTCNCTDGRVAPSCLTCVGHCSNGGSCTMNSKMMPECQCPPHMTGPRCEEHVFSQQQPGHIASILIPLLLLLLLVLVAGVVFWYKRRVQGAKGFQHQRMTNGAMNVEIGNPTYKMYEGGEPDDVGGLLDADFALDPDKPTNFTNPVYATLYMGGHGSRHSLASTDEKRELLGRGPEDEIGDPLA
row,Kd [nM],Binder
1,31,B1
2,42,B2
3,> 200,B3
